Experimental data published in patent US20250313644A1 (FUTUREGEN BIOPHARMACEUTICAL BEIJING, published 2025).
Residue numbers refer to the chain shown, from its start.

T1: LT-α (UniProt P01374 35-205)
T1 sequence (looked up): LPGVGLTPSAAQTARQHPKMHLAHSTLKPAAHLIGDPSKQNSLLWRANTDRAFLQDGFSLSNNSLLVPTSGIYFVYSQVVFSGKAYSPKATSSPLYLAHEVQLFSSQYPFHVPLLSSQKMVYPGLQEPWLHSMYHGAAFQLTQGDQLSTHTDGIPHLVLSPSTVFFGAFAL

T2: FASL (UniProt P48023 134-281, limits assumed)
T2 sequence (looked up): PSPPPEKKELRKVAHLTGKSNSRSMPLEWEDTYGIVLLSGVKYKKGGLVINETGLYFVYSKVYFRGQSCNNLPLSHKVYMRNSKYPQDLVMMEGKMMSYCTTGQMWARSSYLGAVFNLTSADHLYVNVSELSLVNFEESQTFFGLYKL

T3: human TL1A (HuTL1A) (human, UniProt O95150 57-251, limits assumed, biotin-labelled in some assays (site not stated))
T3 construct: Expressed in EXPI-293 cells and purified by Ni-NTA (His-tag); Described as a trimeric antigen; also called TL1A antigen; WT
T3 sequence: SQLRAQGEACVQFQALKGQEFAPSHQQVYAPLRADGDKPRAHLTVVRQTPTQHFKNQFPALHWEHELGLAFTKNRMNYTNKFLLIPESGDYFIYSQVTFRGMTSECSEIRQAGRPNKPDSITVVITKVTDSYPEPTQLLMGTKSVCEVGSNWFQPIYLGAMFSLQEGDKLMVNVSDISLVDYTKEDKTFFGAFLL

T4: endogenous TL1A induced in PBMC by immune complexes (UniProt O95150 72-251, limits assumed)
T4 sequence (looked up): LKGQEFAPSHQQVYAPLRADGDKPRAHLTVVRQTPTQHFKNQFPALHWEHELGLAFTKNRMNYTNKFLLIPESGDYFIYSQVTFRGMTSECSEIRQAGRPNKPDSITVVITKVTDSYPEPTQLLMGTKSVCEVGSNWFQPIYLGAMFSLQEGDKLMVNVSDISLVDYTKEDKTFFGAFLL

B1: M701-3966 (antibody, human IgG1, kappa, L234A L235A, V domains shown)
VH: ELQLQESGPGLVKPSETLSLTCAVSGVSFSDYHWAWIRQPPGKGLEWIGDINHRGHTNYNPSLKSRVTVSIDTSKNQFSLKLSSVTAADTAVYFCARDFPNFIFDYWGQGTLVTVSS
VL: DIQLTQSPGTLSLSPGERATLSCRASQSVSSYLAWYQQKPGQAPRLLIYGASKRATGIPDRFSGSGSGTDFTLTISRLEPEDFAVYYCQQYGDSPLTFGQGTKVEIKR
notes: Fc-engineered IgG1
B2: M701-4007 (antibody, human IgG1, kappa, L234A L235A, V domains shown)
VH: B1 VH with Y106F
VL: B1 VL with S31T
notes: Fc-engineered IgG1

Assays:
LT-α [1] = target: T1, LT-α; assay: ELISA, coated LT-α, Ab 0.391 nM
Method: (§1) In this experiment, ELISA was used to assess the binding ability of monoclonal antibodies to TL1A homologous molecules. Representative members of the TNF ligand superfamily, TNFα, LT-α, LIGHT and FASL, were selected for binding testing. 1 μg/mL of TNFα, LT-α, LIGHT or FASL was coated in a microplate with a carbonate buffer solution at pH=9.6, 100 μL per well, and the microplate was incubated at 4° C. overnight. The microplate was then washed 5 times with PBST, blocked with 300 μL/well of PBS containing 1% BSA, and was incubated at room temperature for 1 hour. After washing 5 times with PBST, about 100 μL each of the M701 monoclonal antibodies and the control antibodies were added to each well, and were incubated at room temperature for 1 hour. After washing 5 times with PBST, 100 μL of HRP-anti-human Fc (Sino Biological) was added to each well, and was incubated at room temperature for 1 hour. After washing 5 times with PBST, 100 μL of colorimetric substrate TMB was added to each well, and color was developed at room temperature for 10 minutes, followed by addition of 1M sulfuric acid to terminate the reaction. OD450 nm was recorded on a microplate reader.

LIGHT [2] = target: T5, LIGHT (UniProt O43557 74-240, limits assumed); assay: ELISA, coated LIGHT, Ab 25 nM
T5 sequence (O43557 74-240 limits assumed): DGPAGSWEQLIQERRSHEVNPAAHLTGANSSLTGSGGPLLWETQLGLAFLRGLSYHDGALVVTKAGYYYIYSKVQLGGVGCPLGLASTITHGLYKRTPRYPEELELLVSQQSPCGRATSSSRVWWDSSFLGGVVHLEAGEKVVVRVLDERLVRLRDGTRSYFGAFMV
Method: as §1

FASL [3] = target: T2, FASL; assay: ELISA, coated FASL, Ab 0.000 nM (blank)
Method: as §1

LIGHT [4] = target: T5, LIGHT; assay: ELISA, coated LIGHT, Ab 1.563 nM
Method: as §1

TNFα [5] = target: T6, TNFα (UniProt P01375 77-233); assay: ELISA, coated TNF-α, Ab 6.25 nM
T6 sequence (P01375 77-233 limits assumed): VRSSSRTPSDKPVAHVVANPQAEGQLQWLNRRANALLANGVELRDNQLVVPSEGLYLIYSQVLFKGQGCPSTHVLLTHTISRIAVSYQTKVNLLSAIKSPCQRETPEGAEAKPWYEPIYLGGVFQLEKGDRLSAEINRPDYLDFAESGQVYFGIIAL
Method: as §1

TNFα [6] = target: T6, TNFα; assay: ELISA, coated TNF-α, Ab 25 nM
Method: as §1

LIGHT [7] = target: T5, LIGHT; assay: ELISA, coated LIGHT
Method: as §1

LT-α [8] = target: T1, LT-α; assay: ELISA, coated LT-α, Ab 25 nM
Method: as §1

FASL [9] = target: T2, FASL; assay: ELISA, coated FASL, Ab 1.563 nM
Method: as §1

TNFα [10] = target: T6, TNFα; assay: ELISA, coated TNF-α, Ab 1.563 nM
Method: as §1

TNFα [11] = target: T6, TNFα; assay: ELISA, coated TNF-α, Ab 0.000 nM (blank)
Method: as §1

human TL1A (HuTL1A) [12] = target: T3, human TL1A (HuTL1A); assay: ELISA: biotin-HuTL1A on streptavidin plate, antibody diluted at pH 7.4, HRP-anti-human Fc, OD450
Method: Corresponding antibodies were added to specific wells, and the antibodies were diluted with sodium dihydrogen phosphate-citrate buffer at pH 7.4, pH 6.0, pH 5.8, or pH 5.6. Binding assay was carried out at room temperature for 30 minutes. After the incubation, the excess antibodies were removed and the wells were washed by PBST. HRP-anti-Human Fc (Sino Biological) was then added into each well and incubated for 30 minutes to detect the bound antibody. The substrate TMB was finally added to develop color for 5-10 minutes. The color development reaction was terminated with 1M sulfuric acid. OD450 nm was recorded on a microplate reader, and the data were processed and fitted by 4 parameter logistic regression.

FASL [13] = target: T2, FASL; assay: ELISA, coated FASL, Ab 0.391 nM
Method: as §1

human TL1A (HuTL1A) [14] = target: T3, human TL1A (HuTL1A); assay: cell-based or functional assay
FASL [15] = target: T2, FASL; assay: ELISA, coated FASL
Method: as §1

human TL1A (HuTL1A) [16] = target: T3, human TL1A (HuTL1A); assay: cell-based or functional assay; remark: listed apart in the source
FASL [17] = target: T2, FASL; assay: ELISA, coated FASL, Ab 6.25 nM
Method: as §1

[18] = target: T4, endogenous TL1A induced in PBMC by …; assay: cell-based or functional assay

Binder | OD450 nm (LT-α [1]) | OD450 nm (LIGHT [2]) | OD450 nm (FASL [3]) | OD450 nm (LIGHT [4]) | OD450 nm (TNFα [5]) | OD450 nm (TNFα [6]) | binding result (LIGHT [7]) | OD450 nm (LT-α [8]) | OD450 nm (FASL [9]) | OD450 nm (TNFα [10]) | OD450 nm (TNFα [11]) | EC50 (read off the curve) (human TL1A (HuTL1A) [12]) [nM] | OD450 nm (FASL [13]) | IC50 (read off the curve); SEAP reporter in HEK293T/DR3-NFκB cells with soluble TL1A, OD655 (human TL1A (HuTL1A) [14]) [nM] | binding result (FASL [15]) | IC50 (read off the curve); IFN-γ of human T cells with IL-12, IL-18 and exogenous human TL1A (human TL1A (HuTL1A) [16]) [nM] | OD450 nm (FASL [17]) | IC50 (read off the curve); IFN-γ of PBMC stimulated with immune complex, IL-12 and IL-18 [18] [nM]
B1 | 0.0604 | 0.0674 | 0.0692 | 0.0573 | 0.0511 | 0.0593 | no binding (tested: 100 nM) | 0.0639 | 0.0522 | 0.0528 | 0.0706 | ~0.1 | 0.0504 | ~1 | no binding (tested: 100 nM) | ~0.3 | 0.0525 | –
B2 | 0.0576 | 0.063 | 0.0648 | 0.0568 | 0.0553 | 0.0665 | no binding (tested: 100 nM) | 0.0628 | 0.06 | 0.0588 | 0.0762 | ~0.1 | 0.0504 | ~1 | no binding (tested: 100 nM) | ~0.2 | 0.0523 | ~0.5
